Blank lines part the entries; values can stand above or below the binder they belong to.
Assays:
[1] = target: T1, biotinylated 10-mer C-terminal PBM peptide of DGKζ (human, UniProt Q13574, biotin attached to the N-terminus via a trioxatridecan-succinamic acid (ttds) linker); assay: nHU-MS, printed as pKapp 5.01
[2] = target: T1, biotinylated 10-mer C-terminal PBM …; assay: nHU-MS, printed as pKapp 4.98
[3] = target: T1, biotinylated 10-mer C-terminal PBM …; assay: nHU-MS, printed as pKapp 5.71
[4] = target: T1, biotinylated 10-mer C-terminal PBM …; assay: nHU-MS, printed as pKapp 4.96

T1 sequence (Q13574 whole entry, looked up, tested part not stated): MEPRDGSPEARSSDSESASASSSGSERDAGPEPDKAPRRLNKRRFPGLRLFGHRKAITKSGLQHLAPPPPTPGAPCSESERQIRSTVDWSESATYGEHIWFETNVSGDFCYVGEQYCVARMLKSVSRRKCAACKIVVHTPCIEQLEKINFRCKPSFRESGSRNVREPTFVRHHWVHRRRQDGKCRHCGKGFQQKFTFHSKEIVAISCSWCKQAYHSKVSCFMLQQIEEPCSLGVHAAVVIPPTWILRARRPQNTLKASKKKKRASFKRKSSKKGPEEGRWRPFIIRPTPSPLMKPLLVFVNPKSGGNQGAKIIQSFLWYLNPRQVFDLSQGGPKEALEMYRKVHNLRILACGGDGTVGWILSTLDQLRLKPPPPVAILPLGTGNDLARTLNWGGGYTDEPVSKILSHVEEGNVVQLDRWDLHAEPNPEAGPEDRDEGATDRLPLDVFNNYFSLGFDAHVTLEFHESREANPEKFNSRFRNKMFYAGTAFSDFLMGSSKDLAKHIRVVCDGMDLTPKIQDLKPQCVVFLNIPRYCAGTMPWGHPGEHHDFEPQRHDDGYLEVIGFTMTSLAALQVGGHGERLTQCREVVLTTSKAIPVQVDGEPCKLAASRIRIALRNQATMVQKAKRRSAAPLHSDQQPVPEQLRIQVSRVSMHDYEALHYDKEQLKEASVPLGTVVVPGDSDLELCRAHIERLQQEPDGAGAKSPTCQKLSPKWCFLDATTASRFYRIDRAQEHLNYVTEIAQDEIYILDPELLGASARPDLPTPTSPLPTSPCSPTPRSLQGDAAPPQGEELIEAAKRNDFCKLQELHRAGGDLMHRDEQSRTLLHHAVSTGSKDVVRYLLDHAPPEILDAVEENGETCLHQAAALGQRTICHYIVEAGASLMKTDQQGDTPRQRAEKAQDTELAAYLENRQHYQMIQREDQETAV

Kd [1]: 9.77 µM
B1: LIN7C (natural protein)
chain: MAALGEPVRLERDICRAIELLEKLQRSGEVPPQKLQALQRVLQSEFCNAVREVYEHVYETVDISSSPEVRANATAKATVAAFAASEGHSHPRVVELPKTEEGLGFNIMGGKEQNSPIYISRIIPGGIADRHGGLKRGDQLLSVNGVSVEGEHHEKAVELLKAAQGKVKLVVRYTPKVLEEMESRFEKMRSAKRRQQT

Kd [2]: 10.5 µM
B2: CASK (natural protein)
chain: MADDDVLFEDVYELCEVIGKGPFSVVRRCINRETGQQFAVKIVDVAKFTSSPGLSTEDLKREASICHMLKHPHIVELLETYSSDGMLYMVFEFMDGADLCFEIVKRADAGFVYSEAVASHYMRQILEALRYCHDNNIIHRDVKPHCVLLASKENSAPVKLGGFGVAIQLGESGLVAGGRVGTPHFMAPEVVKREPYGKPVDVWGCGVILFILLSGCLPFYGTKERLFEGIIKGKYKMNPRQWSHISESAKDLVRRMLMLDPAERITVYEALNHPWLKERDRYAYKIHLPETVEQLRKFNARRKLKGAVLAAVSSHKFNSFYGDPPEELPDFSEDPTSSGLLAAERAVSQVLDSLEEIHALTDCSEKDLDFLHSVFQDQHLHTLLDLYDKINTKSSPQIRNPPSDAVQRAKEVLEEISCYPENNDAKELKRILTQPHFMALLQTHDVVAHEVYSDEALRVTPPPTSPYLNGDSPESANGDMDMENVTRVRLVQFQKNTDEPMGITLKMNELNHCIVARIMHGGMIHRQGTLHVGDEIREINGISVANQTVEQLQKMLREMRGSITFKIVPSYRTQSSSCERDSPSTSRQSPANGHSSTNNSVSDLPSTTQPKGRQIYVRAQFEYDPAKDDLIPCKEAGIRFRVGDIIQIISKDDHNWWQGKLENSKNGTAGLIPSPELQEWRVACIAMEKTKQEQQASCTWFGKKKKQYKDKYLAKHNAVFDQLDLVTYEEVVKLPAFKRKTLVLLGAHGVGRRHIKNTLITKHPDRFAYPIPHTTRPPKKDEENGKNYYFVSHDQMMQDISNNEYLEYGSHEDAMYGTKLETIRKIHEQGLIAILDVEPQALKVLRTAEFAPFVVFIAAPTITPGLNEDESLQRLQKESDILQRTYAHYFDLTIINNEIDETIRHLEEAVELVCTAPQWVPVSWVY

Kd [3]: 1.95 µM
B3: MAGI3 (natural protein)
chain: MSKTLKKKKHWLSKVQECAVSWAGPPGDFGAEIRGGAERGEFPYLGRLREEPGGGTCCVVSGKAPSPGDVLLEVNGTPVSGLTNRDTLAVIRHFREPIRLKTVKPGKVINKDLRHYLSLQFQKGSIDHKLQQVIRDNLYLRTIPCTTRAPRDGEVPGVDYNFISVEQFKALEESGALLESGTYDGNFYGTPKPPAEPSPFQPDPVDQVLFDNEFDAESQRKRTTSVSKMERMDSSLPEEEEDEDKEAINGSGNAENRERHSESSDWMKTVPSYNQTNSSMDFRNYMMRDETLEPLPKNWEMAYTDTGMIYFIDHNTKTTTWLDPRLCKKAKAPEDCEDGELPYGWEKIEDPQYGTYYVDHLNQKTQFENPVEEAKRKKQLGQVEIGSSKPDMEKSHFTRDPSQLKGVLVRASLKKSTMGFGFTIIGGDRPDEFLQVKNVLKDGPAAQDGKIAPGDVIVDINGNCVLGHTHADVVQMFQLVPVNQYVNLTLCRGYPLPDDSEDPVVDIVAATPVINGQSLTKGETCMNPQDFKPGAMVLEQNGKSGHTLTGDGLNGPSDASEQRVSMASSGSSQPELVTIPLIKGPKGFGFAIADSPTGQKVKMILDSQWCQGLQKGDIIKEIYHQNVQNLTHLQVVEVLKQFPVGADVPLLILRGGPPSPTKTAKMKTDKKENAGSLEAINEPIPQPMPFPPSIIRSGSPKLDPSEVYLKSKTLYEDKPPNTKDLDVFLRKQESGFGFRVLGGDGPDQSIYIGAIIPLGAAEKDGRLRAADELMCIDGIPVKGKSHKQVLDLMTTAARNGHVLLTVRRKIFYGEKQPEDDSSQAFISTQNGSPRLNRAEVPARPAPQEPYDVVLQRKENEGFGFVILTSKNKPPPGVIPHKIGRVIEGSPADRCGKLKVGDHISAVNGQSIVELSHDNIVQLIKDAGVTVTLTVIAEEEHHGPPSGTNSARQSPALQHRPMGQSQANHIPGDRSALEGEIGKDVSTSYRHSWSDHKHLAQPDTAVISVVGSRHNQNLGCYPVELERGPRGFGFSLRGGKEYNMGLFILRLAEDGPAIKDGRIHVGDQIVEINGEPTQGITHTRAIELIQAGGNKVLLLLRPGTGLIPDHGDWDINNPSSSNVIYDEQSPLPPSSHFASIFEESHVPVIEESLRVQICEKAEELKDIVPEKKSTLNENQPEIKHQSLLQKNVSKRDPPSSHGHSNKKNLLKVENGVTRRGRSVSPKKPASQHSEEHLDKIPSPLKNNPKRRPRDQSLSPSKGENKSCQVSTRAGSGQDQCRKSRGRSASPKKQQKIEGSKAPSNAEAKLLEGKSRRIAGYTGSNAEQIPDGKEKSDVIRKDAKQNQLEKSRTRSPEKKIKRMVEKSLPSKMTNKTTSKEVSENEKGKKVTTGETSSSNDKIGENVQLSEKRLKQEPEEKVVSNKTEDHKGKELEAADKNKETGRFKPESSSPVKKTLITPGPWKVPSGNKVTGTIGMAEKRQ

Kd [4]: 11 µM
B4: SYNJ2BP (natural protein)
chain: MNGRVDYLVTEEEINLTRGPSGLGFNIVGGTDQQYVSNDSGIYVSRIKENGAAALDGRLQEGDKILSVNGQDLKNLLHQDAVDLFRNAGYAVSLRVQHRLQVQNGPIGHRGEGDPSGIPIFMVLVPVFALTMVAAWAFMRYRQQL
